Measurements as given in the RNAGym collection of RNA variant scans (doi:10.1073/pnas.2313332121).

B1: TPR t1 (parent)
chain: GACCAAUCUGCCCUCAGAGCUCGAGAACAUCUUCGGAUGCAGAGGAGGCAGGCUUCGGUGGCGCGAUAGCGCCAACGUCCUCAACCUCCAAUGCAUCCCACCACAUGAUGAUGCCUGAAGAGCCUUGGUUUUUUG

Variants of: B1
Test: polymerase ribozyme fitness, log enrichment relative to wild type (log ratio); higher = more active; in vitro selection for triplet polymerase activity
Procedure, shortened: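 Mutant libraries were PCR-built and transcribed for each subunit of a heterodimeric triplet polymerase ribozyme and selected for one round in triplicate at −7 °C, frozen, before gel excision of extended constructs and streptavidin-bead capture. Input and output libraries were Illumina-sequenced, keeping genotypes with ≥10 input reads and ≥1 read per output. Fitness is a logarithmic ratio of genotype to wild-type enrichment, in base 2, using inverse-variance-weighted replicate averages.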

Going from G60U C80U C123A to C62A C101A, the “polymerase ribozyme fitness (log ratio)” value falls from -1.11 to -2.84.

Compared with C62A C101U, U59G G122A is higher in “polymerase ribozyme fitness (log ratio)” value: -2.3 for the first, -1.35 for the second.

Going from G61C A83G to G60U C104U, the “polymerase ribozyme fitness (log ratio)” value rises from -3.02 to 0.494.

First: G61C C76U
Second: G61A C64A
The “polymerase ribozyme fitness (log ratio)” value of the first is higher: -3.1 for the first, -6.82 for the second.

Compared with G60A A83C, G61A C89A is lower in “polymerase ribozyme fitness (log ratio)” value: -0.195 for the first, -1.25 for the second.

First: G60U A91U A121U
Second: G60A G135A
The “polymerase ribozyme fitness (log ratio)” value of the first is higher: 0.38 for the first, -0.733 for the second.

First: G60A G135U
Second: G61A A111U
The “polymerase ribozyme fitness (log ratio)” value of the first is higher: -0.711 for the first, -2.88 for the second.

Going from G60C U130A U133A to G61A C97U C114U, the “polymerase ribozyme fitness (log ratio)” value falls from -1.59 to -2.43.

First: G61C C85U U116A C123U U129A
Second: G60C C102U G128A
The “polymerase ribozyme fitness (log ratio)” value of the first is lower: -6.64 for the first, -4.97 for the second.

Going from C62A to G61A C94U U112A, the “polymerase ribozyme fitness (log ratio)” value rises from -0.872 to 1.31.

First: G61U G93U U130A
Second: G61U G107A
The “polymerase ribozyme fitness (log ratio)” value of the first is higher: -1.63 for the first, -5.22 for the second.

Going from G60C C102U to G61C C89A U132C, the “polymerase ribozyme fitness (log ratio)” value falls from -2.87 to -3.89.

First: G61U C104U
Second: G61C U126A
The “polymerase ribozyme fitness (log ratio)” value of the first is higher: 0.264 for the first, -2.98 for the second.

Going from G61A A100U to G60A C62U U112G, the “polymerase ribozyme fitness (log ratio)” value rises from -0.262 to 0.38.

Compared with U59C U78G C104U G117A, G61A C86G G93C is higher in “polymerase ribozyme fitness (log ratio)” value: -2.35 for the first, -2.03 for the second.

Going from G61U C98A C99A to C62A U87G U106G, the “polymerase ribozyme fitness (log ratio)” value rises from -5.19 to -2.77.

First: G61U U81G U129A
Second: G60C U96C C104U G117A
The “polymerase ribozyme fitness (log ratio)” value of the first is lower: -4.47 for the first, -2.83 for the second.

Compared with G61U G63A U96A A103G A111U G113A U132C, G61A C86U is higher in “polymerase ribozyme fitness (log ratio)” value: -6.45 for the first, -0.712 for the second.

First: G61U C73U A121G
Second: C62A C82U A121U U125A
The “polymerase ribozyme fitness (log ratio)” value of the first is lower: 0.407 for the first, 1.19 for the second.

Going from U59G C97U to G61C A83C C89U, the “polymerase ribozyme fitness (log ratio)” value falls from -1.6 to -2.95.

Going from G61A U92A C123A G127U to G61U A100C, the “polymerase ribozyme fitness (log ratio)” value rises from -1.55 to -0.248.

Going from G60U C80G to G60U U78A U106A, the “polymerase ribozyme fitness (log ratio)” value rises from -4.54 to 0.283.

First: G61U A83U A90G
Second: G61U A84U
The “polymerase ribozyme fitness (log ratio)” value of the first is higher: 0.371 for the first, -0.0265 for the second.

Compared with G61U C98A, G61U C98U is higher in “polymerase ribozyme fitness (log ratio)” value: -3.78 for the first, -1.55 for the second.

Compared with G61C G93U, C62A G77U C114G is lower in “polymerase ribozyme fitness (log ratio)” value: -2.81 for the first, -4.81 for the second.

First: G60U A121U
Second: G61A C101U
The “polymerase ribozyme fitness (log ratio)” value of the first is higher: 1.63 for the first, -1.21 for the second.

First: G60U U87A U126C
Second: G60U A91G
The “polymerase ribozyme fitness (log ratio)” value of the first is higher: -0.499 for the first, -1.56 for the second.

Going from G60U C86U A103U to G61C G113U, the “polymerase ribozyme fitness (log ratio)” value rises from -6.46 to -4.1.

First: G60U U131C
Second: G60C C88U G117A
The “polymerase ribozyme fitness (log ratio)” value of the first is higher: -0.0582 for the first, -1.68 for the second.

Going from G61U C97G G113U to G60A C64U, the “polymerase ribozyme fitness (log ratio)” value rises from -5.53 to -2.43.

Going from U59C G117A to G60C U130G, the “polymerase ribozyme fitness (log ratio)” value rises from -1.62 to -1.28.

Compared with G60C G120U, G61A C88G is lower in “polymerase ribozyme fitness (log ratio)” value: 0.528 for the first, -0.136 for the second.

First: G60A C72G C79A U87C U129C
Second: G61C C79U C101G
The “polymerase ribozyme fitness (log ratio)” value of the first is lower: -3.89 for the first, -1.64 for the second.

Compared with G60C C80U, G61C C124G is higher in “polymerase ribozyme fitness (log ratio)” value: -4.1 for the first, -0.476 for the second.

Compared with U59C G71A G127C U132C, G61U A68U U87A C114G is lower in “polymerase ribozyme fitness (log ratio)” value: -2.94 for the first, -6.91 for the second.

Compared with G61C C89G G113U U133C, G61A G107U is lower in “polymerase ribozyme fitness (log ratio)” value: -4.45 for the first, -4.9 for the second.

First: G61A U109C
Second: G61A U109A
The “polymerase ribozyme fitness (log ratio)” value of the first is higher: -2.02 for the first, -5.19 for the second.

Going from G61U U96A to G61U U78C C89G, the “polymerase ribozyme fitness (log ratio)” value falls from -0.797 to -1.23.

Compared with G61C U125G, G60U C79U is higher in “polymerase ribozyme fitness (log ratio)” value: -1.95 for the first, 0.386 for the second.

Going from G61C G63C to C62A A84U, the “polymerase ribozyme fitness (log ratio)” value rises from -3.6 to -1.52.

Going from G60A G122A to G60U A119G, the “polymerase ribozyme fitness (log ratio)” value rises from -0.483 to -0.151.

Going from G61A A91C to C62A C99U, the “polymerase ribozyme fitness (log ratio)” value falls from -0.737 to -3.69.

Going from C62A C79U C88G G135U to G61A U78C C85U U96C C101U U109G, the “polymerase ribozyme fitness (log ratio)” value falls from -2.35 to -5.66.

C62A C82U and G61A G110U U132A are within 0.2 log units of each other in “polymerase ribozyme fitness (log ratio)” value: -0.465 for the first, -0.611 for the second.

Going from G61A G113A U130G to G60A U92A C104U U133A, the “polymerase ribozyme fitness (log ratio)” value falls from -1.32 to -2.74.

Going from G61A G93A C114G to G61U U106A U116C, the “polymerase ribozyme fitness (log ratio)” value rises from -2.13 to -0.163.

First: G61A U78G A84U C86A
Second: G61U G135A
The “polymerase ribozyme fitness (log ratio)” value of the first is lower: -1.71 for the first, -0.268 for the second.

Going from G61U A105U to G61U A105C, the “polymerase ribozyme fitness (log ratio)” value falls from -1.36 to -1.99.

First: G60A U92A
Second: G61A C79A C104A A111U
The “polymerase ribozyme fitness (log ratio)” value of the first is higher: -3.24 for the first, -5.96 for the second.

G60A A90C and G61U U125G are within 0.2 log units of each other in “polymerase ribozyme fitness (log ratio)” value: -0.936 for the first, -0.883 for the second.

Going from G60U A105C to G61A U78G G120A, the “polymerase ribozyme fitness (log ratio)” value rises from -1.6 to 0.458.

Going from G61A C62U C73A to U59G C79A A103G, the “polymerase ribozyme fitness (log ratio)” value falls from -2.37 to -5.54.

Compared with G60U C104U U116A, G61C U78G U112A G128A is lower in “polymerase ribozyme fitness (log ratio)” value: -2.99 for the first, -6.61 for the second.

Going from G60C C72U to G60C G110U, the “polymerase ribozyme fitness (log ratio)” value falls from -0.882 to -1.71.

Compared with G61U A100C U106A U112A, G60A C64G G69U U132A is lower in “polymerase ribozyme fitness (log ratio)” value: 1.26 for the first, -0.296 for the second.

First: G60C A111U G128U U133A
Second: U59C G107C U112A U133G
The “polymerase ribozyme fitness (log ratio)” value of the first is higher: -6.08 for the first, -6.34 for the second.

Compared with G60U U87A C123G, G61U C82A G107A is lower in “polymerase ribozyme fitness (log ratio)” value: 1.56 for the first, -5.28 for the second.

C62A U109G G110U and G60C C114A C115G G122C U133C are within 0.2 log units of each other in “polymerase ribozyme fitness (log ratio)” value: -4.7 for the first, -4.6 for the second.

First: G60U U126C
Second: C62A G110A
The “polymerase ribozyme fitness (log ratio)” value of the first is higher: -0.44 for the first, -2.12 for the second.

Going from G61U G117A to C62A G107A, the “polymerase ribozyme fitness (log ratio)” value falls from -0.499 to -5.05.

Going from G60U A83U A108C C114G G117C to G60A C114A, the “polymerase ribozyme fitness (log ratio)” value rises from -5.39 to -1.45.

First: G60A C114U
Second: G61A C89G C101G A121G
The “polymerase ribozyme fitness (log ratio)” value of the first is lower: -1.78 for the first, -0.932 for the second.

First: G60A C82U
Second: G61U A103C
The “polymerase ribozyme fitness (log ratio)” value of the first is higher: -0.523 for the first, -5.47 for the second.

Compared with G60A A100U U129A, G60A C102A G120C U132C is higher in “polymerase ribozyme fitness (log ratio)” value: -2 for the first, -1.03 for the second.

Going from U59G U81G U96G to G60A C88G, the “polymerase ribozyme fitness (log ratio)” value rises from -3.9 to -1.54.

Compared with G60A C88U, G61U A95U is higher in “polymerase ribozyme fitness (log ratio)” value: -0.511 for the first, -0.221 for the second.

Compared with G61U G77C A119U, G60U C97A C104U U126G is lower in “polymerase ribozyme fitness (log ratio)” value: -1.73 for the first, -5.83 for the second.

First: G60U C85A
Second: G61U C101A U125C
The “polymerase ribozyme fitness (log ratio)” value of the first is higher: -0.541 for the first, -4.61 for the second.

G60C C82G and G60C C82A are within 0.2 log units of each other in “polymerase ribozyme fitness (log ratio)” value: -0.49 for the first, -0.574 for the second.

Going from G61A A118G to G61A A84U C114U, the “polymerase ribozyme fitness (log ratio)” value falls from -0.742 to -2.12.

Compared with G60A G110C, C62A A83U A90U A91C is lower in “polymerase ribozyme fitness (log ratio)” value: -3.08 for the first, -3.43 for the second.

Compared with G61A C123G, U59G C89A A121G is lower in “polymerase ribozyme fitness (log ratio)” value: 1.69 for the first, 0.508 for the second.

First: G60U G120U
Second: G60U G120A
The “polymerase ribozyme fitness (log ratio)” value of the first is lower: 0.205 for the first, 1.38 for the second.

First: G60A C89A U116G
Second: G60C G110U U125G
The “polymerase ribozyme fitness (log ratio)” value of the first is lower: -4.84 for the first, -2.79 for the second.

First: G60A C62U C79G U106G
Second: G60U C124G
The “polymerase ribozyme fitness (log ratio)” value of the first is lower: -5.51 for the first, 1.38 for the second.

G60A A84C and G60C A121C U130A are within 0.2 log units of each other in “polymerase ribozyme fitness (log ratio)” value: -0.0134 for the first, 0.0713 for the second.

Going from G60A A105U to C62A C72G U112G, the “polymerase ribozyme fitness (log ratio)” value falls from -1.64 to -1.95.

Going from U59C C97A U109C C114G G122U to G60A C85A, the “polymerase ribozyme fitness (log ratio)” value rises from -6.59 to -1.07.

Compared with G61A U116G G128C, G61U C94U is higher in “polymerase ribozyme fitness (log ratio)” value: -4.66 for the first, 0.338 for the second.

Compared with G60A A84U U87A G113U G122A, G60U C82U is higher in “polymerase ribozyme fitness (log ratio)” value: -5.92 for the first, -0.383 for the second.

Compared with C62A A95U A121C, G61C is lower in “polymerase ribozyme fitness (log ratio)” value: -0.641 for the first, -1.63 for the second.

G61A and G61U are within 0.2 log units of each other in “polymerase ribozyme fitness (log ratio)” value: 0.0725 for the first, 0.14 for the second.

Compared with U59C C101A, G60U U125G is higher in “polymerase ribozyme fitness (log ratio)” value: -1.32 for the first, -0.584 for the second.

With U59G G71A the “polymerase ribozyme fitness (log ratio)” value was -3.25.
